The record followed here is IntAct's records for PubMed 18617892.

The chains are these.
B1: Nuclear factor NF-kappa-B p100 subunit (Homo sapiens), Q00653 (parent)
chain: MESCYNPGLDGIIEYDDFKLNSSIVEPKEPAPETADGPYLVIVEQPKQRGFRFRYGCEGPSHGGLPGASSEKGRKTYPTVKICNYEGPAKIEVDLVTHSDPPRAHAHSLVGKQCSELGICAVSVGPKDMTAQFNNLGVLHVTKKNMMGTMIQKLQRQRLRSRPQGLTEAEQRELEQEAKELKKVMDLSIVRLRFSAFLRASDGSFSLPLKPVISQPIHDSKSPGASNLKISRMDKTAGSVRGGDEVYLLCDKVQKDDIEVRFYEDDENGWQAFGDFSPTDVHKQYAIVFRTPPYHKMKIERPVTVFLQLKRKRGGDVSDSKQFTYYPLVEDKEEVQRKRRKALPTFSQPFGGGSHMGGGSGGAAGGYGGAGGGGSLGFFPSSLAYSPYQSGAGPMGCYPGGGGGAQMAATVPSRDSGEEAAEPSAPSRTPQCEPQAPEMLQRAREYNARLFGLAQRSARALLDYGVTADARALLAGQRHLLTAQDENGDTPLHLAIIHGQTSVIEQIVYVIHHAQDLGVVNLTNHLHQTPLHLAVITGQTSVVSFLLRVGADPALLDRHGDSAMHLALRAGAGAPELLRALLQSGAPAVPQLLHMPDFEGLYPVHLAVRARSPECLDLLVDSGAEVEATERQGGRTALHLATEMEELGLVTHLVTKLRANVNARTFAGNTPLHLAAGLGYPTLTRLLLKAGADIHAENEEPLCPLPSPPTSDSDSDSEGPEKDTRSSFRGHTPLDLTCSTKVKTLLLNAAQNTMEPPLTPPSPAGPGLSLGDTALQNLEQLLDGPEAQGSWAELAERLGLRSLVDTYRQTTSPSGSLLRSYELAGGDLAGLLEALSDMGLEEGVRLLRGPETRDKLPSTAEVKEDSAYGSQSVEQEAEKLGPPPEPPGGLCHGHPQPQVH

The variants in assay [1] derive from B1. The conditions noted are these: with fbw1a_human BTRC.
In assay [2] the parent is B1. The conditions noted are these: with ubc_human UBC.

For K90R, the “effect of a mutation on the interaction” value in assay [1] and in assay [2] was “decreasing interaction” in each case.

With K863R, the “effect of a mutation on the interaction” value in assay [1] and in assay [2] was “decreasing interaction” in each case.

Consider K689R, for which the “effect of a mutation on the interaction” value in assay [1] and in assay [2] was “decreasing interaction” throughout.

Regarding K298R, the “effect of a mutation on the interaction” value in assay [1] and in assay [2] was “decreasing interaction” in each case.
